Assay results: patent US20040229310A1 (Genentech, published 2004)
Blank lines part the entries; values can stand above or below the binder they belong to.

Legend:
VEGF [1] = target: T1, VEGF (UniProt P15692-4 27-191, limits assumed); experiment: BIAcore SPR, VEGF coupled to the chip, full-length antibody injected; Kd = koff/kon; original FR1 subgroup III sequence (pxVG11VNERK)
T1 construct: Coupled covalently to the biosensor chip; also called VEGF antigen; VEGF (109)
Method: (§1) The VEGF-binding affinities of full length antibodies produced in bacterial cells were calculated from association and disassociation rate constants measured using a BIAcore™-2000 surface plasmon resonance system (BIAcore, Inc., Piscataway, N.J.) as described in Chen et al, (1999) J. Mol. Bio. 293:865-881). A biosensor chip was activated for covalent coupling of VEGF using N-ethyl-N′-(3-dimethylaminopropyl)-carbo-dimide hydrochloride (EDC) and N-hydroxysuccinimid (NHS) according to the supplier's (BIAcore, Inc., Piscataway, N.J.) instructions. VEGF (109) or VEGF (165) was buffer-exchanged into 20 mM sodium acetate, pH 4.8 and diluted to approximately […] to achieve approximately 700-1400 response units (RU) of coupled protein. A solution of 1 M ethanolamine was injected as a blocking agent.
(§2) For kinetics measurements, twofold serial dilutions of full length antibodies were injected in PBS/Tween buffer (0.05% Tween-20 in phosphate-buffered saline) at 25° C. or 37° C. at a flow rate of 10 μl/minute. Equilibrium dissociation constants, Kd values from SPR measurements were calculated as koff/kₒₙ.
(§3) To determine if the FR1 subgroup substitutions had any effect on the binding affinity for VEGF antigen, an affinity assay was performed using the expressed antibodies obtained from bacterial cells.

VEGF [2] = target: T1, VEGF; experiment: BIAcore SPR, VEGF coupled to the chip, full-length antibody injected; Kd = koff/kon; subgroup I sequence substitution (pVKFR1-2)
Method: as §1, §2, §3

T1 sequence (P15692 other isoform, or with tags, fused parts or gaps limits assumed): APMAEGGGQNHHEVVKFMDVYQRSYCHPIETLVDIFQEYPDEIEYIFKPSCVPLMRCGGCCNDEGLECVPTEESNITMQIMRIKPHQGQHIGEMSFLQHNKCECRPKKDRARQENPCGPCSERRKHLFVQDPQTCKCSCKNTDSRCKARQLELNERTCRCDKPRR

Kd (VEGF [1]): 0.12 nM
B1: anti-VEGF antibody VNERK with heavy chain FR1 subgroup III sequence (plasmid pxVG11VNERK) (antibody, V domains shown)
VH: EVQLVESGGGLVQPGGSLRLSCAASGYTFTNYGINWVRQAPGKGLEWVGWINTYTGEPTYAADFKRRFTFSLDTSKSTAYLQMNSLRAEDTAVYYCAKYPHYYVNERKSHWYFDVWGQGTLVTVSS
VL: DIQLTQSPSSLSASVGDRVTITCSASQDISNYLNWYQQKPGKAPKVLIYFTSSLHSGVPSRFSGSGSGTDFTLTISSLQPEDFATYYCQQYSTVPWTFGQGTKVEIKR
notes: Full-length humanized antibody made in E. coli (aglycosylated); also called anti-VEGF (VNERK); xVEGF (VNERK)

Kd (VEGF [2]): 0.19 nM
B2: anti-VEGF antibody VNERK with heavy chain FR1 subgroup I consensus sequence (plasmid pVKFR1-2) (antibody, V domains shown)
VH: QVQLVQSGAEVKKPGASVKVSCKASGYTFTNYGINWVRQAPGKGLEWVGWINTYTGEPTYAADFKRRFTFSLDTSKSTAYLQMNSLRAEDTAVYYCAKYPHYYVNERKSHWYFDVWGQGTLVTVSS
VL: B1 VL
notes: Full-length antibody made in E. coli; differs from VNERK (pxVG11VNERK) by 12 substitutions in heavy chain FR1 (subgroup III to subgroup I); also called pVKFR1-2 (FR1 = SGI); VNERK HCFR1=SGI
